Experimental data published in patent US20160289331A1 (NATIONAL UNIVERSITY CORP HOKKAIDO UNIVERSITY, published 2016).

Tests used:
[1] = target: mDR6 expressed on mouse T cells (DO11.10-T cells, splenocytes) (mouse) (UniProt Q9EPU5); test: cell-based or functional assay
[2] = target: T1, mouse Sdc1 (mSdc1) expressed on cells (mouse, UniProt P18828 18-311, heparan sulfate is bound at position 45 and position 47); test: binding of labeled Fc fusions to DO11.10-T cells expressing mSdc1
T1 construct: On DO11.10-T or A20 cells transformed with pMXsIG/mSdc1, and endogenous on A20 cells (shRNA experiment); also called mouse syndecan-1; CD138
T1 sequence: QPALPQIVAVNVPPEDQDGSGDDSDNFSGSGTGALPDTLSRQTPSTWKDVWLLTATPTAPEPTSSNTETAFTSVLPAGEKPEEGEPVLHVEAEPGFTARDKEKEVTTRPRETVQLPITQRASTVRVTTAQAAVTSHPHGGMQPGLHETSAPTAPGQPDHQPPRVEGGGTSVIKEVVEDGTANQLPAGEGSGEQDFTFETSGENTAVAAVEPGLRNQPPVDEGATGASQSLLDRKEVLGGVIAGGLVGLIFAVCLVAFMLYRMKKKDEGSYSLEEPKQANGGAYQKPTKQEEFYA
Text: An expression vector (pMXsIG/mSdc1) into which a gene encoding mSdc1 (SEQ ID NO: 7) was incorporated in an expressible manner, and a control vector (pMXsIG) were introduced into DO11.10-T cells to prepare transformed cells. Binding abilities of these two kinds of transformed cells to labeled mDR6-hFcm and to labeled mDR6-hFcm deltaCRD1 was examined, and it was confirmed that binding ability of mDR6-hFcm deltaCRD1 increased to about 2.5 times of that of mDR6-hFcm (FIG. 22).

mSdc1-His (ligand)
IL2 production level of DO11.10-T cells stimulated with anti-CD3 antibody, mSdc1-His at final concentration 100 nM [1]: 50%

B1: mDR6-hFcm deltaCRD1 (Fc fusion)
chain: QPEQKTLSLPGTYRHVDRTTGQVLCHDCSQPCPWPMIERLPCAALTDRECICPPGMYQSNGTCAPHTVCPVGWGVRKKGTENEDVRCKQCARGTFSDVPSSVMKCKAHTDCLGQNLEVVKPGTKETDNVCGMRLFFSSTNPPSSGTVTFSHPEHMESHDVPSSTYEPQGMNSTDSNSTASVRTKVPSGIEEGTVPDNTSSTSGKEGTNRTLPNPPQVTHQQAPHHRHILKLLPSSMEATGEKSSTAIKAPKRGHPRQNAHKHFDINEHL
modifications: labeled
notes: Derived from pcDNA/mDR6-hFcm; the Fc part is that of mDR6-hFcm; also called CRD1-deficient solubilized DR6 mutant; cysteine rich domain-deficient mDR6 mutant; not shown: human IgG Fc region
binding ability relative to mDR6-hFcm [2]: ~2.5 times
